Laboratory results: ChEMBL document CHEMBL1811779, “Adenosine deaminase-like protein 1 (ADAL1): characterization and substrate specificity in the hydrolysis of N(6)- or O(6)-substituted purine or 2-aminopurine nucleoside monophosphates” (J Med Chem, 2011)
The source made the active and inactive calls. No cut-off for these calls is given here.

Experiments:
[1] = target: T1, N6-Methyl-AMP deaminase (Homo sapiens) (UniProt Q6DHV7); experiment: (§1) Activity of recombinant human ADAL1 expressed in Escherichia coli by UV-spectrophotometry
T1 sequence (whole entry): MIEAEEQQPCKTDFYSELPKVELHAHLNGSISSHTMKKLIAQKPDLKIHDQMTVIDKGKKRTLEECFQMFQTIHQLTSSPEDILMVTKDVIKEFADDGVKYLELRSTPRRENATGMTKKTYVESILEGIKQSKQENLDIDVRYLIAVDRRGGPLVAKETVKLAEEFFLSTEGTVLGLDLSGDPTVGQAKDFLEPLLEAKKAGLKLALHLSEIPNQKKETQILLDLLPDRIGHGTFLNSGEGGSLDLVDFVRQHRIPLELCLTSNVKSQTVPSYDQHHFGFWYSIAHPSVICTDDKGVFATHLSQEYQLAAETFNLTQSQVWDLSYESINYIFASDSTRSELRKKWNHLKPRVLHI

[2] = substrate: Nc1nc(NC2CC2)c2ncn([C@H]3C=C[C@@H](COP(=O)(O)O)C3)c2n1; experiment: (§2) Kcat/Km ratio of recombinant human ADAL1 expressed in Escherichia coli
[3] = substrate: COc1nc(N)nc2c1ncn2[C@@H]1O[C@H](COP(=O)(O)O)[C@@H](O)[C@H]1O; experiment: as §2
[4] = substrate: CCOc1nc(N)nc2c1ncn2[C@@H]1O[C@H](COP(=O)(O)O)[C@@H](O)[C@@]1(C)F; experiment: as §2
[5] = substrate: COc1nc(N)nc2c1ncn2[C@@H]1O[C@H](COP(=O)(O)O)[C@@H](O)[C@@]1(C)F; experiment: as §2
[6] = substrate: C[C@@]1(F)[C@H](O)[C@@H](COP(=O)(O)O)O[C@H]1n1cnc2c(N3CCC3)nc(N)nc21; experiment: as §2
[7] = substrate: O=P(O)(O)OC[C@H]1O[C@@H](n2cnc3c(NC4CCCC4)ncnc32)[C@H](O)[C@@H]1O; experiment: as §2
[8] = substrate: CC(C)Oc1nc(N)nc2c1ncn2[C@@H]1O[C@H](COP(=O)(O)O)[C@@H](O)[C@@]1(C)F; experiment: as §2
[9] = substrate: CNc1ncnc2c1ncn2[C@@H]1O[C@H](COP(=O)(O)O)[C@@H](O)[C@H]1O; experiment: as §2
[10] = substrate: COc1nc(N)nc2c1ncn2[C@H]1C[C@H](O)[C@@H](COP(=O)(O)O)O1; experiment: as §2
[11] = substrate: COc1nc(N)nc2c1ncn2[C@@H]1O[C@H](COP(=O)(O)O)[C@@H](O)[C@@]1(C)O; experiment: as §2
[12] = substrate: Nc1ncnc2c1ncn2[C@@H]1O[C@H](COP(=O)(O)O)[C@@H](O)[C@H]1O; experiment: as §2
[13] = substrate: Nc1nc(Cl)c2ncn([C@@H]3O[C@H](COP(=O)(O)O)[C@@H](O)[C@H]3O)c2n1; experiment: as §2
[14] = substrate: Nc1nc(NC2CC2)c2ncn([C@H]3C=C[C@@H](COP(=O)(O)O)C3)c2n1; experiment: as §1
[15] = substrate: COc1nc(N)nc2c1ncn2[C@@H]1O[C@H](COP(=O)(O)O)[C@@H](O)[C@H]1O; experiment: as §1
[16] = substrate: CCOc1nc(N)nc2c1ncn2[C@@H]1O[C@H](COP(=O)(O)O)[C@@H](O)[C@@]1(C)F; experiment: as §1
[17] = substrate: COc1nc(N)nc2c1ncn2[C@@H]1O[C@H](COP(=O)(O)O)[C@@H](O)[C@@]1(C)F; experiment: as §1
[18] = substrate: C[C@@]1(F)[C@H](O)[C@@H](COP(=O)(O)O)O[C@H]1n1cnc2c(N3CCC3)nc(N)nc21; experiment: as §1
[19] = substrate: O=P(O)(O)OC[C@H]1O[C@@H](n2cnc3c(NC4CCCC4)ncnc32)[C@H](O)[C@@H]1O; experiment: as §1
[20] = substrate: CC(C)Oc1nc(N)nc2c1ncn2[C@@H]1O[C@H](COP(=O)(O)O)[C@@H](O)[C@@]1(C)F; experiment: as §1
[21] = substrate: CNc1ncnc2c1ncn2[C@@H]1O[C@H](COP(=O)(O)O)[C@@H](O)[C@H]1O; experiment: as §1
[22] = substrate: COc1nc(N)nc2c1ncn2[C@H]1C[C@H](O)[C@@H](COP(=O)(O)O)O1; experiment: as §1
[23] = substrate: COc1nc(N)nc2c1ncn2[C@@H]1O[C@H](COP(=O)(O)O)[C@@H](O)[C@@]1(C)O; experiment: as §1
[24] = substrate: Nc1ncnc2c1ncn2[C@@H]1O[C@H](COP(=O)(O)O)[C@@H](O)[C@H]1O; experiment: as §1
[25] = substrate: Nc1nc(Cl)c2ncn([C@@H]3O[C@H](COP(=O)(O)O)[C@@H](O)[C@H]3O)c2n1; experiment: as §1

## COc1nc(N)nc2c1ncn2[C@@H]1O[C@H](CO)[C@@H](O)[C@@]1(C)F
[1]
  Activity: inactive

## Nc1ncnc2c1ncn2[C@@H]1O[C@H](CO)[C@@H](O)[C@H]1O
[1]
  Activity: inactive

## Nc1nc(=O)[nH]c2c1ncn2[C@@H]1O[C@H](CO)[C@@H](O)[C@H]1O
[1]
  Activity: inactive

## COc1nc(N)nc2c1ncn2[C@@H]1O[C@H](COP(=O)(O)OP(=O)(O)O)[C@@H](O)[C@@]1(C)F
[1]
  Activity: inactive

## Nc1ncnc2c1ncn2[C@@H]1O[C@H](COP(N)(=O)O)[C@@H](O)[C@H]1O
[1]
  Activity: inactive

## CCOc1nc(N)nc2c1ncn2[C@@H]1O[C@@H]2COP(=O)(O)O[C@H]2[C@@]1(C)F
[1]
  Activity: inactive

## CCOc1nc(N)nc2c1ncn2[C@@H]1O[C@H](CO)[C@@H](O)[C@@]1(C)F
[1]
  Activity: inactive

## CCOc1nc(N)nc2c1ncn2[C@@H]1O[C@H](COP(=O)(O)OP(=O)(O)OP(=O)(O)O)[C@@H](O)[C@@]1(C)F
[1]
  Activity: inactive

## Nc1ncnc2c1ncn2CCOCP(=O)(O)O
[1]
  Activity: inactive

## CCOc1nc(N)nc2c1ncn2[C@@H]1O[C@@H]2CO[P@](=O)(OC(C)C)O[C@H]2[C@@]1(C)F
[1]
  Activity: inactive

## COc1nc(N)nc2c1ncn2[C@@H]1O[C@H](COP(=O)(N[C@@H](C)C(=O)OC(C)C)Oc2ccccc2)[C@@H](O)[C@@]1(C)F (stereo not given in full)
[1]
  Activity: inactive

## Nc1ccn([C@H]2C[C@H](O)[C@@H](COP(=O)(O)O)O2)c(=O)n1
[1]
  Activity: inactive

## Nc1nc(N)c2ncn([C@@H]3O[C@H](CO)[C@@H](O)[C@H]3O)c2n1
[1]
  Activity: inactive

## O=P(O)(O)OC[C@H]1O[C@@H](n2cnc3c2ncn2ccnc32)[C@H](O)[C@@H]1O
[1]
  Activity: inactive

## O=C(O)CC(Nc1ncnc2c1ncn2[C@@H]1O[C@H](COP(=O)(O)O)[C@@H](O)[C@H]1O)C(=O)O (stereo not given in full)
[1]
  Activity: inactive

## C[C@H](Cn1cnc2c(N)ncnc21)OCP(=O)(O)O
[1]
  Activity: inactive

## Nc1nc(=S)c2ncn([C@@H]3O[C@H](COP(=O)(O)O)[C@@H](O)[C@H]3O)c2[nH]1
[1]
  Activity: inactive

## CN1N=C(N)c2cn([C@@H]3O[C@H](COP(=O)(O)O)[C@@H](O)[C@H]3O)c3ncnc1c23
[1]
  Activity: inactive

## COc1nc(N)nc2c1ncn2[C@@H]1O[C@H](COP(=O)(O)N[C@@H](C)C(=O)O)[C@@H](O)[C@@]1(C)F
[1]
  Activity: inactive

## C[C@@]1(F)[C@H](O)[C@@H](COP(=O)(O)O)O[C@H]1n1ccc(N)nc1=O
[1]
  Activity: inactive

## Nc1nc(NC2CC2)c2ncn([C@H]3C=C[C@@H](CO)C3)c2n1
[1]
  Activity: inactive

## COc1nc(N)nc2c1ncn2[C@@H]1O[C@H](CO)[C@@H](O)[C@H]1O
[1]
  Activity: inactive

## CSc1nc(N)nc2c1ncn2[C@@H]1O[C@H](COP(=O)(O)O)[C@@H](O)[C@H]1O
[1]
  Activity: inactive

## CNc1ncnc2c1ncn2[C@@H]1O[C@H](CO)[C@@H](O)[C@H]1O
[1]
  Activity: inactive

B1: N6-Methyl-AMP deaminase (Homo sapiens), Q6DHV7 (protein)
chain: T1 sequence (whole entry)
[2]
  kcat/Km: 220000 M⁻¹ s⁻¹
[3]
  kcat/Km: 450000 M⁻¹ s⁻¹
[4]
  kcat/Km: 320000 M⁻¹ s⁻¹
[5]
  kcat/Km: 650000 M⁻¹ s⁻¹
[6]
  kcat/Km: 180000 M⁻¹ s⁻¹
[7]
  kcat/Km: 300000 M⁻¹ s⁻¹
[8]
  kcat/Km: 280000 M⁻¹ s⁻¹
[9]
  kcat/Km: 130000 M⁻¹ s⁻¹
[10]
  kcat/Km: 490000 M⁻¹ s⁻¹
[11]
  kcat/Km: 220000 M⁻¹ s⁻¹
[12]
  kcat/Km: 1700 M⁻¹ s⁻¹
[13]
  kcat/Km: 223000 M⁻¹ s⁻¹
[14]
  Km: 7.37 µM
  kcat: 1.63 s⁻¹
[15]
  Km: 5.2 µM
  kcat: 2.33 s⁻¹
[16]
  Km: 25.1 µM
  kcat: 8.14 s⁻¹
[17]
  Km: 8.96 µM
  kcat: 5.85 s⁻¹
[18]
  Km: 8.63 µM
  kcat: 1.55 s⁻¹
[19]
  Km: 14.3 µM
  kcat: 4.24 s⁻¹
[20]
  Km: 25.9 µM
  kcat: 7.2 s⁻¹
[21]
  Km: 12.5 µM
  kcat: 1.58 s⁻¹
[22]
  Km: 6 µM
  kcat: 2.92 s⁻¹
[23]
  Km: 10.7 µM
  kcat: 2.36 s⁻¹
[24]
  Km: 32.8 µM
  kcat: 0.055 s⁻¹
[25]
  Km: 16.3 µM
  kcat: 3.64 s⁻¹
